From patent US20160195533

Biological target: Snail1, endogenous protein of A549, HCC44, HEK293T or H1299 cells
Sequence (chain, as listed by the source): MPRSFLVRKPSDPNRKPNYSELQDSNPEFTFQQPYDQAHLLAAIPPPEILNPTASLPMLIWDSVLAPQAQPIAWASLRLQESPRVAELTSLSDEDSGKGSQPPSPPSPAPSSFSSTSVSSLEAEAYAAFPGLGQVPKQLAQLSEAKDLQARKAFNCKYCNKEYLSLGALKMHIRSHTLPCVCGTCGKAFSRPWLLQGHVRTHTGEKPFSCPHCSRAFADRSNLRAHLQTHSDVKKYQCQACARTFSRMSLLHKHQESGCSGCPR

B1: glutamyl-prolyl-tRNA synthetase (EPRS), endogenous protein of A549 or HEK293T cells (protein)
chain: MATLSLTVNSGDPPLGALLAVEHVKDDVSISVEEGKENILHVSENVIFTDVNSILRYLARVATTAGLYGSNLMEHTEIDHWLEFSATKLSSCDSFTSTINELNHCLSLRTYLVGNSLSLADLCVWATLKGNAAWQEQLKQKKAPVHVKRWFGFLEAQQAFQSVGTKWDVSTTKARVAPEKKQDVGKFVELPGAEMGKVTVRFPPEASGYLHIGHAKAALLNQHYQVNFKGKLIMRFDDTNPEKEKEDFEKVILEDVAMLHIKPDQFTYTSDHFETIMKYAEKLIQEGKAYVDDTPAEQMKAEREQRIDSKHRKNPIEKNLQMWEEMKKGSQFGQSCCLRAKIDMSSNNGCMRDPTLYRCKIQPHPRTGNKYNVYPTYDFACPIVDSIEGVTHALRTTEYHDRDEQFYWIIEALGIRKPYIWEYSRLNLNNTVLSKRKLTWFVNEGLVDGWDDPRFPTVRGVLRRGMTVEGLKQFIAAQGSSRSVVNMEWDKIWAFNKKVIDPVAPRYVALLKKEVIPVNVPEAQEEMKEVAKHPKNPEVGLKPVWYSPKVFIEGADAETFSEGEMVTFINWGNLNITKIHKNADGKIISLDAKLNLENKDYKKTTKVTWLAETTHALPIPVICVTYEHLITKPVLGKDEDFKQYVNKNSKHEELMLGDPCLKDLKKGDIIQLQRRGFFICDQPYEPVSPYSCKEAPCVLIYIPDGHTKEMPTSGSKEKTKVEATKNETSAPFKERPTPSLNNNCTTSEDSLVLYNRVAVQGDVVRELKAKKAPKEDVDAAVKQLLSLKAEYKEKTGQEYKPGNPPAEIGQNISSNSSASILESKSLYDEVAAQGEVVRKLKAEKSPKAKINEAVECLLSLKAQYKEKTGKEYIPGQPPLSQSSDSSPTRNSEPAGLETPEAKVLFDKVASQGEVVRKLKTEKAPKDQVDIAVQELLQLKAQYKSLIGVEYKPVSATGAEDKDKKKKEKENKSEKQNKPQKQNDGQRKDPSKNQGGGLSSSGAGEGQGPKKQTRLGLEAKKEENLADWYSQVITKSEMIEYHDISGCYILRPWAYAIWEAIKDFFDAEIKKLGVENCYFPMFVSQSALEKEKTHVADFAPEVAWVTRSGKTELAEPIAIRPTSETVMYPAYAKWVQSHRDLPIKLNQWCNVVRWEFKHPQPFLRTREFLWQEGHSAFATMEEAAEEVLQILDLYAQVYEELLAIPVVKGRKTEKEKFAGGDYTTTIEAFISASGRAIQGGTSHHLGQNFSKMFEIVFEDPKIPGEKQFAYQNSWGLTTRTIGVMTMVHGDNMGLVLPPRVACVQVVIIPCGITNALSEEDKEALIAKCNDYRRRLLSVNIRVRADLRDNYSPGWKFNHWELKGVPIRLEVGPRDMKSCQFVAVRRDTGEKLTVAENEAETKLQAILEDIQVTLFTRASEDLKTHMVVANTMEDFQKILDSGKIVQIPFCGEIDCEDWIKKTTARDQDLEPGAPSMGAKSLCIPFKPLCELQPGAKCVCGKNPAKYYTLFGRSY
B1 was tested, and the “EMT markers after EPRS knock-down (immunoblot, A549)” value was “at the time of EPRS knock-down, the Snail1 and p-SMAD3 was reduced and the E-cadherin was increased. This indicates that the EMT progress was suppressed”.
